Measured values as given in patent publication US8563685B2, “Fatty acid formulations and oral delivery of proteins and peptides, and uses thereof” (priority 2004, dated 2013).

Assays:
[1] = tested on: chymotrypsin; test: In vitro enzyme (chymotrypsin) resistance, HIM2 and Zn HIM2 complexes; type: in vitro ADME; details: 37° C., 0.3 mg/mL protein
Description: (§1) This sample serves as T=0. […] The half life was calculated using the equation: t1/2:=−0.693/slope.

[2] = tested on: chymotrypsin; test: In vitro enzyme (chymotrypsin) resistance, IN105 and Zn IN105 complexes; type: in vitro ADME; details: 37° C., 0.6 mg/ml protein
Description: as §1

Substance | T half [1] [min] | T half [2] [min]
HIM2 (R-type zinc complex): R-type Zn complex of HIM2, 1.1% w/w zinc, 0.1 to 0.25% w/w phenol | 19 to 21 | 
IN105 (R-type zinc complex): R-type Zn complex of IN105, 1.85% w/w zinc, 2.37% w/w phenol (as reaction 9.6.1) |  | 55.3
